Measured values from PMC11861179, “Propionate metabolism in Desulfurella acetivorans” (Frontiers in Microbiology, 2025).

What was measured:
Assay in all cases: purified protein
[1] = system: CC(=O)SCCNC(=O)CCNC(=O)[C@H](O)C(C)(C)COP(=O)(O)OP(=O)(O)OC[C@H]1O[C@@H](n2cnc3c(N)ncnc32)[C@H](O)[C@@H]1OP(=O)(O)O; settings: co-substrate oxaloacetate, 100 mM Tris-HCl pH 7.8, 55°C
[2] = system: CC(C)(COP(=O)(O)OP(=O)(O)OC[C@H]1O[C@@H](n2cnc3c(N)ncnc32)[C@H](O)[C@@H]1OP(=O)(O)O)[C@@H](O)C(=O)NCCC(=O)NCCS; settings: citrate cleavage direction, 55°C
[3] = system: CCC(=O)SCCNC(=O)CCNC(=O)[C@H](O)C(C)(C)COP(=O)(O)OP(=O)(O)OC[C@H]1O[C@@H](n2cnc3c(N)ncnc32)[C@H](O)[C@@H]1OP(=O)(O)O; settings: co-substrate oxaloacetate, 100 mM Tris-HCl pH 7.8, 55°C
O=C(O)CC(=O)C(=O)O = settings: co-substrate acetyl-CoA, 100 mM Tris-HCl pH 7.8, 55°C

## Si-citrate/2-methylcitrate synthase (AHF97591) (Desulfurella acetivorans A63)
[1]
  Km: 14 ± 1.8 µM
  Vmax: 26 µmol/min/mg
  kcat/Km: 1500 M⁻¹ s⁻¹
[2]
  Km: 41 ± 11 µM
  Vmax: 0.1 µmol/min/mg
  kcat/Km: 2000 M⁻¹ s⁻¹
[3]
  Km: 22 ± 3.5 µM
  Vmax: 7.4 µmol/min/mg
  kcat/Km: 300 M⁻¹ s⁻¹
O=C(O)CC(=O)C(=O)O
  Km: 30 ± 4.4 µM
  Vmax: 21 µmol/min/mg
  kcat/Km: 600 M⁻¹ s⁻¹
